# Experimental data reported in patent US6500431B1, “Inhibitors of angiogenesis and tumor growth” (University of Southern California, priority 1998, dated 2002).
# Entries after “also recorded” stand apart in the source; their conditions may differ.
# B1: Saposin B: polypeptide fragment of Prosaposin (positions 190 to 269), SEQ ID NO:2; recombinantly expressed (protein)
# chain: GDVCQDCIQMVTDIQTAVRTNSTFVQALVEHVKEECDRLGPGMADICKNYISQYSEIAIQMMMHMQPKEICALVGFCDEVK
# How the values were obtained:
# [1] = tested on: CD34+/Flk-1+ cells from cord blood; assay: Growth of CD34+/Flk-1+ progenitors on fibronectin coated dishes; format: cell-based, human; details: 50 ng/mL Saposin B
# Source text: A bone marrow derived human CD34+/Flk-1+ progenitor cell can be mobilized into the blood stream in response to tumor induced signals such as VEGF and cytokine production. These cells can target to sites of angiogenesis where they mature into activated endothelial cells and thus contribute to the generation of new blood vessels at the tumor site. By blocking the production of these cells or by targeting these cells (i.e., the CD34+/Flk-1+ progenitors and the activated endothelial cell they can become), the angiogenesis/vasculogenesis required for tumor growth can be reduced or halted. […] The adherent cells take on a spindle-shaped morphology characteristic of the activated vascular endothelial cells typical of the angiogenic process. These cells express endothelial-specific markers including factor VIII, ulex europaeus agglutinin-1 (UEA-1), endothelial constitutive nitric oxide synthase (ecNOS), and E selectin. Further, when these cells (peripheral blood Flk+ progenitors) are infused into mice, they incorporate into newly formed blood vessels at site of injury. These observation identify CD34+/Flk-1+ bone marrow derived progenitors as a putative precursor to vascular endothelial cells. Preventing these cells from colonizing at distal sites of angiogenesis in tumors has enormous implication for the treatment of tumors. […]
# [2] = tested on: Human bone marrow cells and peripheral blood mononuclear cells; assay: Stem cell clonogenic assays in methylcellulose; format: cell-based
# Experimental: Human bone marrow cells and peripheral blood mononuclear cells were harvested from a subject after the administration of high doses of cyclophosphamide and G-CSF. Stem cell clonogenic assays in methylcellulose were performed with IL-3, erythropoietin, and VEGF (10 ng/mL, and 100 ng/mL). VEGF was used to determine if there are progenitor cells with self replication capacity but without adherence to extracellular matrix such as fibronectin. It was also desirable to determine if Saposin B was toxic to endothelial cell specific progenitors for hematopoietic (myeloid or erythroid) lineage cells.
# These colonies contained mixture of cells indicating more than one cell lineage generated in response to VEGF. The colonies also contained spindle shaped cells which mark the presence of VEGF receptors.
# KS-SLK or KS Y-1 cells = assay: KS-SLK or KS Y-1 tumors in nude mice; format: in vivo; details: daily subcutaneous 1, 10 and 20 mg/kg after one week of tumor development
# Experimental: In order to determine the anti-angiogenic activity of the recombinant Saposin B, tumor cells were implanted in immuno-deficient mice and treated with either Saposin B or buffer alone.
# Nude mice were injected with 2×10^6 KS-SLK or KS Y-1 cells subcutaneously in a total volume of 100 μL. After one week of tumor development, the mice were injected subcutaneously daily with either PBS or Saposin B at concentrations of 1, 10 and 20 mg/kg for a total protein concentration of […]. The tumor size was measured three times a week. The results represent the median of 4 mice in each group.
# KS cell lines = assay: Activity of recombinant Prosaposin chains on growth of KS cell lines; format: cell-based; details: FIG. 1
# Source text: In order to determine whether recombinant Saposin B has anti-angiogenic activity, the coding region of each of the Prosaposin chains was amplified from fibroblast cell lines and cloned into both bacterial (pGEX-KG) and eukaryotic (pcDNA 3.1His A) expression vectors.
# The PCR products were digested with the respective restriction enzymes and the restriction products were inserted into the pGEX-KG vector for bacterial expression. pGEX-KG vector comprises a glutathione S transferase (GST)-tag at the […] of the insertion site so that a GST-fusion protein is expressed. The GST-tag is used to aid in purification of the recombinant protein. After elution from a glutathione-Sepharose 4B column, the GST-tagged proteins were incubated with thrombin (4 μg/ml) for 4 hr at room temperature (22-25° C.) in 50 mM Tris, pH 8.3, 3 mM CaCl2, 150 mM NaCl to cleave GST from the fusion protein. Free GST was removed from the preparation by passing the digested fusion protein through the glutathione-Sepharose 4B column.
# By SDS-PAGE, the bacterial product was smaller than the eukaryotic protein. Because prokaryotically expressed proteins are not glycosylated, the difference in molecular weights probably represents the presence of carbohydrate in the eukaryotic protein. Recombinant proteins were then tested in KS, endothelial and control cell lines. Activity was found only in KS cell lines and endothelial cells.
# [3] = tested on: chicken allantoic membrane (CAM); assay: Chicken allantoic membrane (CAM) angiogenesis assay; format: in vivo; details: induced by VEGF or bFGF; 48 hours
# Experimental: In order to test anti-angiogenic activity, chicken allantoic membrane (CAM) assays were performed with recombinant Saposin B. Ten day old fertilized chicken eggs were prepared for assay by creating a window in the egg shell, and placing filter paper discs saturated with VEGF or bFGF as positive controls, test compounds, or carrier buffer (negative controls) on the allantoic membrane. The membranes were harvested after 48 hours and analyzed using an Olympus stereomicroscope. The number of branching blood vessels that infiltrated under the discs were counted and photographed. Eight CAMs were studied for test group, and the experiments were repeated at least twice.
# endothelial cells = assay: Endothelial cell migration assay, fibronectin-coated transwell; format: cell-based; details: chemotaxis induced by VEGF or bFGF
# Experimental: The assays were done in double chamber wells separated by […] membrane. Chemotaxis was induced by bFGF (25 ng/mL) in the lower chamber. Endothelial cells or KS cells (5×10^4/mL) were placed in the upper chamber in the presence and absence of test polypeptides. Taxol at 10 ng/mL was used as a known inhibitor of migration. Cell migration across the membrane was quantitated after an overnight incubation.
# Angiogenesis is mediated by complex biochemical processes including degradation of the basement membrane under existing blood vessel endothelial cells, followed by proliferation and migration of endothelial cells, followed by formation of capillary loops, and recruitment of vascular smooth muscle cells to encase the newly formed vessels and provide stability. […]
# Briefly, wells were coated with fibronectin (25 μg/mL) overnight, and endothelial cells or KS cells were plated in the upper chamber with 100 μL of DMEM/0.4% FCS. […] The plates were incubated for 5 hr at 37° C. and the cells crossing the fibronectin-coated membrane were counted after wiping the cells off the membrane in the upper chamber with a cotton swab.
# The cells that traversed the membrane were fixed with Diff-Quik stain according to the manufacturer's instruction (Dade Diagnostics Inc., Aguada, PR). The cells were counted under a microscope at 320× in four randomly selected fields. […]
# [4] = tested on: CD34+ cord blood derived cells; assay: Viability of CD34+ cord blood derived cells; format: cell-based, human
# Source text: However in the presence of Saposin B, CD34^+/Flk-1^+ progenitor […] was inhibited.
# Saposin B was found not to be toxic to most CD34^+ cord blood derived cells, since the difference in viability of Saposin B treated CD34^+ cells was only around 20% when compared to control cells. Thus Saposin B not only targets fully differentiated and activated endothelial cells, but also a circulating progenitor, previously shown to target angiogenic sites.
molecule,measurement,setting,value
B1,CD34+/Flk-1+ progenitor growth,[1],inhibited
same,cytotoxic effect on colonies developed with IL-3 or erythropoietin,[2],no cytotoxic effect
same,effect on colonies generated with VEGF,[2]; VEGF 10 ng/mL and 100 ng/mL,loss of spindle shaped cells
same,tumor growth,KS-SLK or KS Y-1 cells,markedly retarded
same,growth inhibition of KS cells,KS cell lines,dose dependent growth inhibition
same,angiogenesis (number of blood vessel branches) in CAMs,[3],effectively blocked angiogenesis; also recorded: inhibited by Saposin B in a dose-dependent fashion
same,inhibition of endothelial cell migration,endothelial cells,compete inhibition of cell migration; also recorded: inhibited endothelial cell migration
same,difference in viability of treated CD34+ cells compared to control cells,[4],around 20%
